Results taken from publication PMC10419011.
Numbering of substitutions follows the chain as printed.

Experiments:
[1] = target: neuropeptide Y (Homo sapiens), P01303; assay: competition; details: remark: other sources report otherwise
[2] = target: K^18-TAMRA-NPY; assay: fluorescence polarisation; various concentrations of receptor in small DMPC/DHPC bicelles with 50 nM (K^18-TAMRA)-NPY, 1 h at room temperature, measured at 20 °C; sigmoidal dose-response fit

B1: neuropeptide Y receptor Y2, P49146 (protein)
chain: MGPIGAEADENQTVEEMKVEQYGPQTTPRGELVPDPEPELIDSTKLIEVQVVLILAYCSIILLGVIGNSLVIHVVIKFKSMRTVTNFFIANLAVADLLVNTLCLPFTLTYTLMGEWKMGPVLCHLVPYAQGLAVQVSTITLTVIALDRHRCIVYHLESKISKRISFLIIGLAWGISALLASPLAIFREYSLIEIIPDFEIVACTEKWPGEEKSIYGTVYSLSSLLILYVLPLGIISFSYTRIWSKLKNHVSPGAANDHYHQRRQKTTKMLVCVVVVFAVSWLPLHAFQLAVDIDSQVLDLKEYKLIFTVFHIIAMCSTFANPLLYGWMNSNYRKAFLSAFRCEQRLDAIHSEVSVTFKAKKNLEVRKNSGPNDSFTEATNV
Kd [1]: 2.3 nM

B2: Y2R_A202^45.49C-Δ6Cys-polyHis, P49146 1-381 (receptor)
chain: B1 chain with C58A, C103A, C151A, A202C, C272S, C316A, C342S
modifications: not checked
Kd [2]: 61.4 nM
